Positions count from the first letter of the chain named.
What was measured:
CD73-ND-his [1] = molecular target: T1, CD73-ND-his (human, UniProt P21589 27-317); assay: ELISA as in Example 3, antigen CD73-ND-his, antibody titrated, absorbance 450 nm
T1 construct: Biotinylated and captured on streptavidin in the ELISA
T1 sequence: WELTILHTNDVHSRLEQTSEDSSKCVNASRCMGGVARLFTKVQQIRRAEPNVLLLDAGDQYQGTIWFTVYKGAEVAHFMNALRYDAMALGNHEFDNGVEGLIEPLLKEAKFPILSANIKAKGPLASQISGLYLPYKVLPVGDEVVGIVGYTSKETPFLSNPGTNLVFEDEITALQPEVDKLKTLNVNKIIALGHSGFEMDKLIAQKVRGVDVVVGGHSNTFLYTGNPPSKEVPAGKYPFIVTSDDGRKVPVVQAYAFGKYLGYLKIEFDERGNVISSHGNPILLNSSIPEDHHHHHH

CD73-ND-his [2] = molecular target: T1, CD73-ND-his; assay: ELISA; decline multiple of EC50 against CD73-ND
Method: (§1) The ELISA plates were coated with SA protein diluted to 1.5 μg/mL in coating buffer (50 mM carbonate coating buffer, pH 9.6) and incubated overnight at 4° C. The supernatant was discarded, and the plates were washed three times with PBST. Then, 5% skimmed milk powder prepared with PBS was added for blocking and the plates were incubated for 2 h at 37° C. After washing the plates once with PBST, CD73-biotin protein (prepared by biotinylating CD73-His protein according to the EZ-Link NHS-Biotin Reagent instructions) was diluted to 0.5 μg/mL and added at 100 μL/well for incubation at room temperature for 1 h. The plates were washed three times with PBST, and the prepared murine-derived monoclonal antibodies against human CD73 were serially diluted with 1% BSA buffer prepared with PBST and added to the ELISA plates at 100 μl/well. The plates were incubated at 37° C. for 1 h. After washing the plates three times with PBST, HRP-labeled goat anti-mouse IgG secondary antibody was added and the plates were incubated for 30 min at 37° C. After washing the plates three times with PBST, the residual droplets were patted dry on absorbent paper as much as possible. Then, 100 μl of TMB color developing solution was added to each well, and the plates were incubated in the dark at room temperature for 5 min for color development. Subsequently, 50 μl of 2M H₂SO₄ stop solution was added to each well to terminate the substrate reaction. The OD values were read at 450 nm using a multimode microplate reader to analyze the binding ability of the tested antibodies to the target antigen human CD73-His.
(§2) Referring to the experimental method in Example 3, the affinity of 48A11-HuV33 for various mutant proteins of CD73-ND was determined. The SA protein was diluted to 1 μg/mL for coating the ELISA plates, and the biotinylated CD73 protein (CD73-biotin) was used at a concentration of 0.1 μg/mL.

CD73-ND-P139A = molecular target: T2, CD73-ND-P139A (human, UniProt P21589 27-317); assay: ELISA; decline multiple of EC50 against CD73-ND
T2 construct: Alanine mutant of CD73-ND
T2 sequence: T1 sequence with P139A
Method: as §1, §2

CD73-ND-L184A [3] = molecular target: T3, CD73-ND-L184A (human, UniProt P21589 27-317); assay: ELISA; decline multiple of EC50 against CD73-ND
T3 construct: Alanine mutant of CD73-ND
T3 sequence: T1 sequence with L184A
Method: as §1, §2

CD73-ND-V140A [4] = molecular target: T4, CD73-ND-V140A (human, UniProt P21589 27-317); assay: ELISA; decline multiple of EC50 against CD73-ND
T4 construct: Alanine mutant of CD73-ND
T4 sequence: T1 sequence with V140A
Method: as §1, §2

CD73-ND-D142A [5] = molecular target: T5, CD73-ND-D142A (human, UniProt P21589 27-317); assay: ELISA; decline multiple of EC50 against CD73-ND
T5 construct: Alanine mutant of CD73-ND
T5 sequence: T1 sequence with D142A
Method: as §1, §2

CD73-ND-his [6] = molecular target: T1, CD73-ND-his; assay: ELISA, high plateau value (OD 450 nm)
Method: as §1, §2

CD73-ND-L184A [7] = molecular target: T3, CD73-ND-L184A; assay: ELISA, high plateau value (OD 450 nm)
Method: as §1, §2

CD73-ND-V140A [8] = molecular target: T4, CD73-ND-V140A; assay: ELISA, high plateau value (OD 450 nm)
Method: as §1, §2

CD73-ND-D142A [9] = molecular target: T5, CD73-ND-D142A; assay: ELISA, high plateau value (OD 450 nm)
Method: as §1, §2

B1: 56B10-HuV31 (antibody, human IgG4, V domains shown)
VH: QVQLQQSGAEVKKPGASVKVSCKASGYTFTRYYIYWVRQRPGQGLEWIGWIYPGNFNTKYNEKFKGRATLTADTSASTAYMELSSLTSEDTAVYYCARDVYDYAGFAYWGQGTLVTVSS
VL: DIQLTQSPSFLSASVGDRVTITCKASQGVATAVAWYQQKPGQSPKLLIYWASTRHTGVPDRFSGSGSGTEFTLTISSLQPEDFATYYCQQYSSYPWTFGQGTKVEIK
notes: Humanized
- EC50 (read off the curve) (CD73-ND-his [1]): ~0.08 nM

B2: 48A11-HuV33 (antibody, human IgG4, V domains shown)
VH: QVQLVQSGAEVKKPGASVKVSCKASGYTFTSYWMHWVRQAPGQGLEWIGEINPSIGRTNYNEKFKSRVTLTRDTSTSTAYMELSSLRSEDTAVYYCARRVYGTMDYWGQGTLVTVSS
VL: DIQMTQSPSSLSASVGDRVTITCKASQDINSYLSWFQQKPGKSPKLLIYRANIWVDGVPSRFSGSGSGQDYTFTISSLQPEDIATYYCLQYDELYTFGQGTKVEIK
notes: Humanized
- Ratio(EC50) (CD73-ND-his [2]): 1 fold
- Ratio(EC50) (CD73-ND-P139A): 24.4 fold
- Ratio(EC50) (CD73-ND-L184A [3]): 3.4 fold
- Ratio(EC50) (CD73-ND-V140A [4]): 0.6 fold
- Ratio(EC50) (CD73-ND-D142A [5]): 1.9 fold
- Top (CD73-ND-his [6]): 2
- Top (CD73-ND-L184A [7]): 1.7
- Top (CD73-ND-V140A [8]): 2.05
- Top (CD73-ND-D142A [9]): 1.84
